Tests used:
[1] = biological target: T1, TvACTN-3r (alpha-actinin 3) (Trichomonas vaginalis, UniProt X5FVA1 1-1129); assay: Northwestern blot; REMSA: 20 uL, 0.2 ng 32P-RNA, 1 ug hIRP-1r or 50 ug T. vaginalis extract, 5 ug heparin, 10 min at 25 C, 6% native gel; buffer, salt and pH not given; Northwestern conditions not given; conditions: protein: recombinant; label: 32P (alpha-32P UTP); hairpin
T1 sequence: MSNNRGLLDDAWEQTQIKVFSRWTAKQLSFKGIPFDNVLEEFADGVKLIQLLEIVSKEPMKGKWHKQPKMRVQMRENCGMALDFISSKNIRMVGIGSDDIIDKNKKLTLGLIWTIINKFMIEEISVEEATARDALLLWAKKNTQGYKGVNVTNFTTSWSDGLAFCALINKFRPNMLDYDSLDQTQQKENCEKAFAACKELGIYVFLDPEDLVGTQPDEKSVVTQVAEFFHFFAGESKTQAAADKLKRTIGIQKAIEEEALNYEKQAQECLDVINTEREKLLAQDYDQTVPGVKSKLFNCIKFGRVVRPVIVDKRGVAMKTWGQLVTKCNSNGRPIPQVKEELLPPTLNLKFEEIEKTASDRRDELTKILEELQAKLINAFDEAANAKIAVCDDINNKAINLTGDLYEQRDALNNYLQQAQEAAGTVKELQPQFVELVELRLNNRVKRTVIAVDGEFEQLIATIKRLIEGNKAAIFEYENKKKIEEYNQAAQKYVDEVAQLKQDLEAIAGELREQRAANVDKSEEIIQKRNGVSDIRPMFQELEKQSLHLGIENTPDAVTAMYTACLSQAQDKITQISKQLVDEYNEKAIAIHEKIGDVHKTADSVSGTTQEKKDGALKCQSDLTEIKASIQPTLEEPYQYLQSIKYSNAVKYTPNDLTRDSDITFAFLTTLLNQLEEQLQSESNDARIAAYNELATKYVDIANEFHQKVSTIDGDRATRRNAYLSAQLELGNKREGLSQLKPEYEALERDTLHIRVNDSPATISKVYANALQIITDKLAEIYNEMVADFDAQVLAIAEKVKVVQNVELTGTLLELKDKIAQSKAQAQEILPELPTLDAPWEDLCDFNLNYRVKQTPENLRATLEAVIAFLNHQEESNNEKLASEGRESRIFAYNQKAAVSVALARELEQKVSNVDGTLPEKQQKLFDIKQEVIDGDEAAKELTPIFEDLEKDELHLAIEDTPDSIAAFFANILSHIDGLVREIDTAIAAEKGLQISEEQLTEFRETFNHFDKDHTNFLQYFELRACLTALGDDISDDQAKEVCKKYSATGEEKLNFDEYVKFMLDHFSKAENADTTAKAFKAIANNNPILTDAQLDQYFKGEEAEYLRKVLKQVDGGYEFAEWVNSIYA

[2] = biological target: T2, hIRP-1r (iron regulatory protein 1) (human, UniProt P21399 1-889); assay: EMSA; 5 ug heparin; REMSA: 20 uL, 0.2 ng 32P-RNA, 1 ug hIRP-1r or 50 ug T. vaginalis extract, 5 ug heparin, 10 min at 25 C, 6% native gel; buffer, salt and pH not given; Northwestern conditions not given; conditions: protein: recombinant; (pGEX plasmid); label: 32P (alpha-32P UTP); hairpin
T2 sequence: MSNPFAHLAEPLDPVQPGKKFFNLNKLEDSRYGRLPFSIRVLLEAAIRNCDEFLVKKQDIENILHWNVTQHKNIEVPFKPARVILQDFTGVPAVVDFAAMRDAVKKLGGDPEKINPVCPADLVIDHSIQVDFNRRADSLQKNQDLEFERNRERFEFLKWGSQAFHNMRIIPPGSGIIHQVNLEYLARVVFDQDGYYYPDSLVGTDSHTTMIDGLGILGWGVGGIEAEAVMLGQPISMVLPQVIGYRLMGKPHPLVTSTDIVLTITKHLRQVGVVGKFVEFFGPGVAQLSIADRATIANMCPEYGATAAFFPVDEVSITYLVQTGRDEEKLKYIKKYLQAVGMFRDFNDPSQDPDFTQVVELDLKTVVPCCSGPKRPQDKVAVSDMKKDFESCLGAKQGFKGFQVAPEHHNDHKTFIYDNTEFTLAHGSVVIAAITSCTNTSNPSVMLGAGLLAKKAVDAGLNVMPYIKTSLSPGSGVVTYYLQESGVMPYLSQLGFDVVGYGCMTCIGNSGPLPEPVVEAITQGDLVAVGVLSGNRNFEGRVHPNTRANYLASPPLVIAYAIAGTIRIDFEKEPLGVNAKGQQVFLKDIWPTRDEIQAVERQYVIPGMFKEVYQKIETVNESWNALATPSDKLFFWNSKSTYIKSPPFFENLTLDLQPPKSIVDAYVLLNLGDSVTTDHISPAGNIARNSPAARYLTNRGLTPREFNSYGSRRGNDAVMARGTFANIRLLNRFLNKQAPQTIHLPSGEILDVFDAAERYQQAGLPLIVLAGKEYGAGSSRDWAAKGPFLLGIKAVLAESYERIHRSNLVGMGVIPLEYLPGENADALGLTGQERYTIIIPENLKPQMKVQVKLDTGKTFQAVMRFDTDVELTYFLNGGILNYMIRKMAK

GGGACGUAUUUAAUUGAUUGCG (structured_RNA) [IRE-tvcp12 (wild type)]: binds [1]; binds [2].

Reference: publication PMC10143249, “The Non-Canonical Iron-Responsive Element of IRE-tvcp12 Hairpin Structure at the 3′-UTR of Trichomonas vaginalis TvCP12 mRNA That Binds TvHSP70 and TvACTN-3 Can Regulate mRNA Stability and Amount of P”
